Measured values: the Immune Epitope Database (IEDB)

Experiments:
[1] = target: HLA-A*02:12; assay: IEDB peptide-MHC binding, purified MHC/competitive/fluorescence; filed as Kd, often an IC50 or EC50 that approximates it; ≥ and ≤ were set here for values at or beyond the usual limits of such assays
[2] = target: HLA-A*02:03; assay: as above
[3] = target: HLA-B*27:03; assay: as above
[4] = target: HLA-B*39:01; assay: as above
[5] = target: HLA-A*02:11; assay: as above
[6] = target: HLA-A*69:01; assay: as above
[7] = target: HLA-B*51:01; assay: as above
[8] = target: HLA-A*02:16; assay: as above
[9] = target: HLA-A*03:01; assay: as above
[10] = target: HLA-A*26:01; assay: as above
[11] = target: HLA-A*68:02; assay: as above
[12] = target: HLA-A*02:19; assay: as above
[13] = target: HLA-B*15:01; assay: as above
[14] = target: HLA-B*18:01; assay: as above
[15] = target: HLA-B*57:01; assay: as above
[16] = target: HLA-A*02:01; assay: as above
[17] = target: HLA-B*46:01; assay: as above
[18] = target: HLA-B*15:17; assay: as above; details: source organism: Vibrio vulnificus YJ016
[19] = target: HLA-B*07:02; assay: IEDB peptide-MHC binding, purified MHC/competitive/fluorescence; ≥ and ≤ were set here for values at or beyond the usual limits of such assays; details: source organism: Zaire ebolavirus
[20] = target: HLA-B*07:02; assay: IEDB peptide-MHC binding, purified MHC/direct/fluorescence; filed as Kd, often an IC50 or EC50 that approximates it; ≥ and ≤ were set here for values at or beyond the usual limits of such assays
[21] = target: HLA-A*01:01; assay: as above
[22] = target: HLA-B*44:02; assay: as above
[23] = target: HLA-B*58:01; assay: as above
[24] = target: HLA-A*69:01; assay: as above
[25] = target: HLA-B*40:01; assay: as above
[26] = target: HLA-A*29:02; assay: as above; details: source organism: Entamoeba histolytica HM-1:IMSS
[27] = target: HLA-B*15:01; assay: as above
[28] = target: HLA-A*30:01; assay: as above
[29] = target: HLA-B*18:01; assay: as above; details: source organism: Entamoeba histolytica HM-1:IMSS
[30] = target: HLA-B*57:01; assay: as above; details: source organism: Entamoeba histolytica HM-1:IMSS
[31] = target: HLA-A*02:01; assay: as above
[32] = target: HLA-A*29:02; assay: IEDB peptide-MHC binding, purified MHC/competitive/fluorescence; filed as Kd, often an IC50 or EC50 that approximates it; ≥ and ≤ were set here for values at or beyond the usual limits of such assays
[33] = target: HLA-A*24:02; assay: IEDB peptide-MHC binding, purified MHC/competitive/fluorescence; ≥ and ≤ were set here for values at or beyond the usual limits of such assays; details: source organism: Zaire ebolavirus
[34] = target: HLA-A*02:01; assay: as above; details: source organism: Zaire ebolavirus
[35] = target: HLA-B*08:01; assay: IEDB peptide-MHC binding, purified MHC/direct/fluorescence; filed as Kd, often an IC50 or EC50 that approximates it; ≥ and ≤ were set here for values at or beyond the usual limits of such assays
[36] = target: HLA-A*24:03; assay: as above
[37] = target: HLA-B*27:05; assay: as above
[38] = target: HLA-A*03:01; assay: as above
[39] = target: HLA-A*26:01; assay: as above
[40] = target: HLA-A*11:01; assay: as above
[41] = target: HLA-A*31:01; assay: as above
[42] = source organism: Campylobacter jejuni subsp. jejuni NCTC 11168 = ATCC 700819
[43] = source organism: Vibrio vulnificus YJ016
[44] = source organism: Entamoeba histolytica HM-1:IMSS
[45] = source organism: Cryptosporidium parvum Iowa II
[46] = source organism: Rickettsia conorii
[47] = source organism: Rickettsia sibirica
[48] = source organism: Campylobacter jejuni
[49] = source organism: La Crosse virus

AELIDSFTW
Kd [1, 42]: ≥ 20 µM | Kd [2, 42]: ≥ 20 µM | Kd [3, 42]: ≥ 20 µM | Kd [4, 42]: ≥ 20 µM | Kd [5, 42]: ≥ 20 µM | Kd [6, 42]: ≥ 20 µM | Kd [7, 42]: ≥ 20 µM | Kd [8, 42]: ≥ 20 µM | Kd [9, 42]: ≥ 20 µM | Kd [10, 42]: ≥ 20 µM | Kd [11, 42]: ≥ 20 µM | Kd [12, 42]: ≥ 20 µM | Kd [13, 42]: ≥ 20 µM | Kd [14, 42]: 0.462 µM | Kd [15, 42]: ≥ 20 µM | Kd [16, 42]: ≥ 20 µM | Kd [17, 42]: ≥ 20 µM

DFISMYFPW
Kd [1, 43]: ≥ 20 µM | Kd [2, 43]: ≥ 20 µM | Kd [3, 43]: ≥ 20 µM | Kd [4, 43]: ≥ 20 µM | Kd [5, 43]: ≥ 20 µM | Kd [6, 43]: ≥ 20 µM | Kd [7, 43]: ≥ 20 µM | Kd [18]: ≥ 20 µM | Kd [8, 43]: ≥ 20 µM | Kd [9, 43]: ≥ 20 µM | Kd [10, 43]: ≥ 20 µM | Kd [11, 43]: ≥ 20 µM | Kd [12, 43]: ≥ 20 µM | Kd [13, 43]: ≥ 20 µM | Kd [14, 43]: 0.946 µM | Kd [15, 43]: ≥ 20 µM | Kd [16, 43]: ≥ 20 µM | Kd [17, 43]: ≥ 20 µM

ENTNTSKST
IC50 [19]: ≥ 200 µM

ETMKPAAMV
Kd [20, 44]: ≥ 20 µM | Kd [21, 44]: ≥ 20 µM | Kd [22, 44]: ≥ 20 µM | Kd [23, 44]: ≥ 20 µM | Kd [24, 44]: 0.0015 µM | Kd [25, 44]: ≥ 20 µM | Kd [26]: ≥ 20 µM | Kd [27, 44]: ≥ 20 µM | Kd [28, 44]: ≥ 20 µM | Kd [29]: ≥ 20 µM | Kd [30]: ≥ 20 µM | Kd [31, 44]: ≥ 20 µM

FLYPSWSLY
Kd [3, 45]: ≥ 20 µM | Kd [4, 45]: ≥ 20 µM | Kd [6, 45]: ≥ 20 µM | Kd [8, 45]: 0.101 µM | Kd [12, 45]: ≥ 20 µM | Kd [15, 45]: ≥ 20 µM | Kd [16, 45]: 0.169 µM

KTRMEDYYL
Kd [1, 44]: ≥ 20 µM | Kd [2, 44]: ≥ 20 µM | Kd [3, 44]: ≥ 20 µM | Kd [4, 44]: ≥ 20 µM | Kd [7, 44]: ≥ 20 µM | Kd [9, 44]: ≥ 20 µM | Kd [32, 44]: ≥ 20 µM | Kd [10, 44]: ≥ 20 µM | Kd [12, 44]: ≥ 20 µM | Kd [13, 44]: ≥ 20 µM | Kd [14, 44]: ≥ 20 µM | Kd [15, 44]: 0.151 µM | Kd [16, 44]: ≥ 20 µM | Kd [17, 44]: ≥ 20 µM

QWALLPYLF
Kd ([32]; source organism: Brucella canis ATCC 23365): ≤ 0.0001 µM

RRTRREAIV
IC50 [19]: 37.7 µM | IC50 [33]: 63.3 µM | IC50 [34]: ≥ 5060 µM

RTGDIGCFK
Kd [20, 46]: ≥ 20 µM | Kd [35, 46]: ≥ 20 µM | Kd [36, 46]: ≥ 20 µM | Kd [37, 46]: ≥ 20 µM | Kd [21, 46]: ≥ 20 µM | Kd [22, 46]: ≥ 20 µM | Kd [23, 46]: ≥ 20 µM | Kd [24, 46]: ≥ 20 µM | Kd [25, 46]: ≥ 20 µM | Kd [38, 47]: 0.836 µM | Kd [39, 46]: ≥ 20 µM | Kd [40, 47]: 0.0688 µM | Kd [41, 47]: 0.223 µM | Kd [27, 46]: ≥ 20 µM | Kd [28, 47]: 0.0355 µM | Kd [31, 46]: ≥ 20 µM

SFGAGTLAK
Kd [20, 48]: ≥ 20 µM | Kd [35, 48]: ≥ 20 µM | Kd [36, 48]: ≥ 20 µM | Kd [37, 48]: ≥ 20 µM | Kd [21, 48]: ≥ 20 µM | Kd [22, 48]: ≥ 20 µM | Kd [23, 48]: ≥ 20 µM | Kd [24, 48]: ≥ 20 µM | Kd [25, 48]: ≥ 20 µM | Kd [38, 48]: 1.97 µM | Kd [39, 48]: ≥ 20 µM | Kd [40, 48]: 0.383 µM | Kd [41, 48]: 3.9 µM | Kd [27, 48]: ≥ 20 µM | Kd [28, 48]: 0.0186 µM | Kd [31, 48]: ≥ 20 µM

YRKPSGGVF
Kd [20, 49]: 6.06 µM | Kd [35, 49]: 0.166 µM | Kd [36, 49]: 4.78 µM | Kd [37, 49]: 0.232 µM | Kd [21, 49]: ≥ 20 µM | Kd [22, 49]: ≥ 20 µM | Kd [23, 49]: ≥ 20 µM | Kd [24, 49]: ≥ 20 µM | Kd [25, 49]: ≥ 20 µM | Kd [38, 49]: ≥ 20 µM | Kd [39, 49]: ≥ 20 µM | Kd [40, 49]: ≥ 20 µM | Kd [41, 49]: ≥ 20 µM | Kd [27, 49]: 0.797 µM | Kd [28, 49]: ≥ 20 µM | Kd [31, 49]: ≥ 20 µM
